± gives the standard deviation of the averaged measurements.
System: ATP
Experiment: switch fluorescence ratio, 500 uM ATP over buffer (Cy3 cluster intensity, sum of 5 cycles each) (fold (ratio)); higher = stronger signal-on switching upon ATP binding; sequences stand for … in TCGTCGGCAGCGTCAGATGTGTATAAGAGACAGTTTTTTTTTTTTTTTTTTTTTTTTT…TC
Settings: aptamer strand: ATP DNA aptamer (quencher-CACCTGGGGGAGTATTGCGGAGGAAGG + anchor), 100 nM annealed; ATP concentration: 500 uM
Summary of the method: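 The fluorescence ratio divides summed target-cycle Cy3 intensity by summed buffer-cycle Cy3 intensity for each cluster and is averaged per switch-domain sequence. Cy3-labelled switching-strand clusters on a modified Illumina MiSeq flow-cell were annealed to 100 nM quencher-labelled ATP aptamer, then imaged in selection buffer and again after 15 min with 500 uM ATP at 22 °C. Five such cycles were run, with NaOH stripping and re-annealing between them, and clusters outside 100-1000 RFU were excluded.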
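Also: ATP exposure 15 min at 22 °C before imaging.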

Sequence | switch fluorescence ratio
TGGGCTCTGT | 0.978 ± 0.044
AGGGGGACGT | 0.998 ± 0.024
GTTGTTTAGG | 0.953 ± 0.023
GGGACACGGC | 0.996 ± 0.059
AGAAAGGTTG | 0.984 ± 0.019
GATGTGTGGG | 0.9843 ± 0.0015
TTTCTGTCGG | 1.02 ± 0.032
TAGTCATTAA | 1.002 ± 0.0028
TTCATTGGGA | 1.01 ± 0.025
TTGGATAAAC | 1.03 ± 0.053
AAGGGCATTT | 1.04 ± 0.028
CGAAAAAAGA | 1.05 ± 0.12
GTGTTCAACG | 0.994 ± 0.04
CATCATGTTT | 0.984 ± 0.015
CAACGGGGGG | 0.998 ± 0.029
CAATGTCACC | 1.06 ± 0.019
TTTAAGGGA | 0.9897 ± 0.0045
GAATGGCTGC | 1.04 ± 0.0048
CACCATTAGT | 0.9802 ± 0.0079
ACTTTATCTA | 1.03 ± 0.061
TCAGATGTCT | 1.03 ± 0.055
TTAGTCGACC | 0.9919 ± 0.0016
GCAGGTTGAC | 1.034 ± 0.003

Sequence | switch fluorescence ratio
GTTTGGTGC | 1.02 ± 0.022
TTTAGGTTCT | 1.01 ± 0.026
GGGTGGCCGT | 0.961 ± 0.029
GTGGGTTATC | 1.004 ± 0.007
TGTGAAAGAC | 1.044 ± 0.003
GTGGAAGGTT | 0.995 ± 0.014
AAGTGGCATG | 0.974 ± 0.022
GAGGGGGCCA | 1.02 ± 0.027
CGGTTGACGT | 1.01 ± 0.013
GCATAAGGGT | 1.01 ± 0.038
ACGTTGTGAG | 0.969 ± 0.037
TGGAGCCCCG | 0.999 ± 0.015
GCAACCACCG | 1.137 ± 0.0038
CTGGGGAGCG | 0.954 ± 0.034
TCAAGATA | 1.13 ± 0.21
ATTTGTGGTG | 1.01 ± 0.023
TCTAACGCTG | 1.13 ± 0.056
GGCTGAGTTA | 1.021 ± 0.0025
AGCAAACTTA | 1.14 ± 0.043
GAGAGCCGTT | 1 ± 0.017
CGAAGACGTA | 1.05 ± 0.06
ATGGTTGGTC | 0.97 ± 0.023
CCTTTTGGGC | 0.97636 ± 3.3e-05

Sequence | switch fluorescence ratio
CTTGTGGCTA | 0.956 ± 0.046
GAGAGAATTT | 1 ± 0.02
GGGAGCGTTT | 0.981 ± 0.046
CTGTGGGCCG | 1 ± 0.02
AGGGCTGGGG | 0.973 ± 0.019
AGGATGTTGG | 0.993 ± 0.026
ACGGATTAGG | 1.01 ± 0.021
TGGTTTTATA | 0.969 ± 0.02
TGAATGGGTA | 0.983 ± 0.019
ATTTTACGTA | 1.143 ± 0.0025
ATGTTTTAAC | 1.02 ± 0.039
ACTCGTTAAA | 0.978 ± 0.014
AAATGGGGGT | 0.975 ± 0.011
AAGATGGGGT | 0.991 ± 0.017
TACGTATGAA | 1.17 ± 0.014
ACATCGTTCT | 0.977 ± 0.018
GCTCCTAGCT | 1.07 ± 0.028
ATGTGAGAAT | 0.998 ± 0.037
GCTCTCAGGT | 1.12 ± 0.043
AAGGGACACA | 1.05 ± 0.011
GGGTGGAAGT | 0.981 ± 0.023
TTGTATGGG | 0.984 ± 0.015
CAGTGCGTGG | 0.988 ± 0.017

Sequence | switch fluorescence ratio
TATTACCTTA | 1.03 ± 0.044
GAAAAGGTAA | 1.025 ± 0.0033
ACCAGTCTGG | 1.01 ± 0.017
TTCAAATGCT | 0.998 ± 0.013
ACGGTATCTT | 1.13 ± 0.019
GGAGGAGGTG | 1.02 ± 0.065
GCTGTAAAAA | 1.08 ± 0.063
CGACAGGCAT | 1.63 ± 0.063
ATCATTATAT | 0.99007 ± 0.00051
TGTTGGGGTA | 1.03 ± 0.06
CCAGCTACGG | 1.06 ± 0.053
TATGGGAATG | 1.019 ± 0.0021
GGGGGTAAAA | 1.01 ± 0.029
TATGAGGGCT | 1.04 ± 0.012
AAAATAGGGG | 1.04 ± 0.044
GGGGGACAGC | 0.992 ± 0.023
AAGTCAGAGC | 0.97 ± 0.097
GATATAACAT | 1.028 ± 0.0025
ATAAATTTTT | 1.01 ± 0.023
GGGTACTCGC | 1.03 ± 0.065
GAACATGATA | 1.02 ± 0.028
GTTGGTGAGT | 0.989 ± 0.015
CGGGGAGCGT | 1 ± 0.034

Sequence | switch fluorescence ratio
TTTGGAGTT | 1 ± 0.02
CGTTGTGACT | 0.998 ± 0.021
AACGTTGGGG | 0.967 ± 0.017
CTCGTCGTAT | 1.06 ± 0.05
GGGCTTTAAG | 1.03 ± 0.04
GTGCAAATTG | 0.997 ± 0.024
TTTGAGGGGT | 1.03 ± 0.065
TTTTGCTGGT | 1 ± 0.027
CGCTATTATT | 1.05 ± 0.04
AAATGCGGTA | 1 ± 0.056
ATAACTACTA | 1.06 ± 0.015
CCATTGCTCG | 1.04 ± 0.05
GGGTCAGTGG | 0.976 ± 0.035
AGGCTGTTTT | 1.02 ± 0.016
AAAGTGATTA | 1.01 ± 0.022
TTCGGCGCTG | 1.03 ± 0.074
CCCGTGCTTC | 1.07 ± 0.063
GGTTTCTAGG | 0.99311 ± 0.00018
CCAGACAGC | 1.01 ± 0.052
CTCTTGGGCT | 0.971 ± 0.089
TTTAGGAAGG | 1.017 ± 0.01
GTTCTAAGTA | 0.957 ± 0.0039
GGGTGTTCTT | 0.997 ± 0.034

Sequence | switch fluorescence ratio
CCTGTACGGA | 1.004 ± 0.0067
GTTACGAGTT | 0.977 ± 0.012
GATGAAGGTT | 0.992 ± 0.027
TCCACGGGG | 1.12 ± 0.057
GTGGGTTGGG | 1.09 ± 0.058
CGTTACGCTT | 1.05 ± 0.066
AAACCGATGG | 1.046 ± 0.0085
AGGGGGTT | 1 ± 0.077
GGCCCTACAG | 1.01 ± 0.036
TCCCAAATTT | 0.983 ± 0.032
AAGAATGACT | 0.977 ± 0.014
TCAGCGAATT | 0.98 ± 0.015
TATGCGGCTT | 0.988 ± 0.04
GCACATGGCA | 1.02 ± 0.015
AGCATTGTGA | 0.998 ± 0.051
TGGTTTGGCA | 0.962 ± 0.012
TTTAATTATG | 1.02 ± 0.034
GAATTGGATC | 1.02 ± 0.019
ACAATTGACT | 1.099 ± 0.0039
ATCAGGGCGT | 0.987 ± 0.032
GGCTTTTGGG | 1.03 ± 0.088
ACAGGGGGCC | 1.08 ± 0.12
GGTCTGGTTT | 0.956 ± 0.013

Sequence | switch fluorescence ratio
AAGTAGGTAG | 0.9786 ± 0.002
GAAGTTGTCG | 1.02 ± 0.02
TGAGCAGGTT | 1.017 ± 0.0094
CCTATTGTGG | 0.993 ± 0.015
ATCTATGCTT | 0.989 ± 0.023
GAATGGGGGG | 1.01 ± 0.078
AGCTGGGGGG | 0.982 ± 0.044
TTGAGTTTGA | 0.994 ± 0.011
GATCGAACGT | 1.017 ± 0.0085
GTCTGATTTG | 0.999 ± 0.023
CCGAGAAAAA | 1.12 ± 0.14
ATCGGAGGTC | 0.978 ± 0.037
TGATATGTGT | 0.973 ± 0.053
GCCATGGGCA | 1.002 ± 0.0053
AATGTAAAAC | 1.06 ± 0.066
GAGGGATACA | 0.99 ± 0.043
TTCAGGGGCT | 1.43 ± 0.58
AAAAAAACCT | 1.28 ± 0.39
GTATTTTTTT | 0.967 ± 0.013

Source: the supplement of paper PMC10126150
